Data published in patent US20250281611A1 (BIOSCEPTRE AUST, published 2025).
Values belong to the binder of their own block, whether it stands above or below them.

Tests used:
nfP2X7 CAR 1 [1] = target: T1, nfP2X7 CAR 1; experiment: flow cytometry, anti-His-FITC, MFI on EGFR+ (CAR+) T cells over background 0.44
T1 construct: CAR-positive cells gated by the co-expressed EGFR marker; also called nfP2X7 targeted CAR; nfP2X7 CAR on EGFR+ T cells
Procedure, shortened: (§1)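 CAR T cells incubated with BRiDGE variants at saturating concentrations; bound BRiDGE detected with anti-His-FITC by flow cytometry. EGFR marks CAR expression. Value is median fluorescence intensity on EGFR+ (CAR+) cells divided by that on EGFR− (CAR−) cells.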

CD19 [2] = target: T2, CD19 (UniProt P15391 20-556, limits assumed); experiment: flow cytometry, JeKo-1 cells, anti-His-FITC detection, MFI over no-bridge control
T2 construct: whole, on cells; also called CD19 on JeKo-1
T2 sequence (looked up): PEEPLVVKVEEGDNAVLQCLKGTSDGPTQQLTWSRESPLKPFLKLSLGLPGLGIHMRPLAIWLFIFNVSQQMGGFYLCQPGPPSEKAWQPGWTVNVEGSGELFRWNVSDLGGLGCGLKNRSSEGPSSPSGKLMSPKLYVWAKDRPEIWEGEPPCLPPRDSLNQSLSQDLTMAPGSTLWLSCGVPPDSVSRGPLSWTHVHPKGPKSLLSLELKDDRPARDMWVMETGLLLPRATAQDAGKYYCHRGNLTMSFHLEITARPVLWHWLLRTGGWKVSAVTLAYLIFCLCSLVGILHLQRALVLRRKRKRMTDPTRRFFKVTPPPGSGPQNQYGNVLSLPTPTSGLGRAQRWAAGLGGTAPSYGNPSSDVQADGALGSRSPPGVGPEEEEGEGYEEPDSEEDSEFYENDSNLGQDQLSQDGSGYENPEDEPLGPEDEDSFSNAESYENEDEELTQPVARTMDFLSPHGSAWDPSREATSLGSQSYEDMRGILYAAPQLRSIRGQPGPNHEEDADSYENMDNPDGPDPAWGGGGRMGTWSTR
Procedure: (§2) JeKo-1 cells were incubated with different CD19 BRiDGE variants at saturating concentrations. […] The MFI intensity correlates with the number of secondary bound antibodies bound to the CD19 BRiDGE variants that are only detected if they are bound to the JeKo-1 cells. MFI: median fluorescence intensity. BLitz: Bio-Layer interferometry (BLI) technology using HIS-tag identification tips. […] The higher the MFIR, the stronger the binding.

CD19 [3] = target: T2, CD19; experiment: flow cytometry, JeKo-1 cells, bridge at saturating conc., BIL03s-AF647 detection
Procedure: as §2

nfP2X7 CAR 1 [4] = target: T1, nfP2X7 CAR 1; experiment: flow cytometry, anti-His-FITC, MFI on EGFR+ (CAR+) over EGFR- (CAR-) T cells
Procedure, shortened: as §1

nfP2X7 CAR 1 [5] = target: T1, nfP2X7 CAR 1; experiment: flow cytometry, nfP2X7 CAR 1 T cells (EGFR+ gate), anti-His-FITC detection
CD19 [6] = target: T2, CD19; experiment: flow cytometry, JeKo-1 cells, BIL03s-AF647 detection, MFI over no-bridge control
Procedure: as §2

CD19 [7] = target: T2, CD19; experiment: flow cytometry, JeKo-1 cells, bridge at saturating conc., anti-His-FITC detection
Procedure: as §2

B1: CD19 BRIDGE variant B27 (Fab)
heavy: EVQLVESGGGLVKPGGSLKLSCAASGYTFTSYVMHWVRQAPGKGLEWIGYINPYNDGTKYNEKFQGRVTISSDKSISTAYMELSSLRSEDTAMYYCARGTYYYGTRVFDYWGQGTLVTVSSASTKGPSVFPLAPSSKSTSGGTAALGCLVKDYFPEPVTVSWNSGALTSGVHTFPAVLQSSGLYSLSSVVTVPSSSLGTQTYICNVNHKPSNTKVDKKVEPKSCHHHHHH
light: DFPGHNYTTRNILPGLNITSGGGGSEPKSSDKTHTGSDIVMTQSPATLSLSPGERATLSCRSSKSLQNVNGNTYLYWFQQKPGQSPQLLIYRMSNLNSGVPDRFSGSGSGTEFTLTISSLEPEDFAVYYCMQHLEYPITFGAGTKLEIKRTVAAPSVFIFPPSDEQLKSGTASVVCLLNNFYPREAKVQWKVDNALQSGNSQESVTEQDSKDSTYSLSSTLTLSKADYEKHKVYACEVTHQGLSSPVTKSFNRGEC
HisTag MFI Ratio (background 0.44) (nfP2X7 CAR 1 [1]): 5.3
MFIR HisTag FITC (CD19 [2]): 3.25
MFI Bil03 AF647 (CD19 [3]): 9.6
HisTag MFI Ratio of EGFR+/EGFR- (nfP2X7 CAR 1 [4]): 4.1
MFI HisTag FITC in EGFR+ Population (nfP2X7 CAR 1 [5]): 2.35
MFIR BIL03 AF647 (CD19 [6]): 20.9
MFI HisTag FITC (CD19 [7]): 2.5

B3: CD19 BRIDGE variant B30 (Fab)
heavy: B1 heavy
light: DFPGHNYTTRNILPGLNITSTFHKTSGSGKGGGGSEPKSSDKTHTGSDIVMTQSPATLSLSPGERATLSCRSSKSLQNVNGNTYLYWFQQKPGQSPQLLIYRMSNLNSGVPDRFSGSGSGTEFTLTISSLEPEDFAVYYCMQHLEYPITFGAGTKLEIKRTVAAPSVFIFPPSDEQLKSGTASVVCLLNNFYPREAKVQWKVDNALQSGNSQESVTEQDSKDSTYSLSSTLTLSKADYEKHKVYACEVTHQGLSSPVTKSFNRGEC
HisTag MFI Ratio (background 0.44) (nfP2X7 CAR 1 [1]): 4.8
MFIR HisTag FITC (CD19 [2]): 3.05
MFI Bil03 AF647 (CD19 [3]): 7.48
HisTag MFI Ratio of EGFR+/EGFR- (nfP2X7 CAR 1 [4]): 4.3
MFI HisTag FITC in EGFR+ Population (nfP2X7 CAR 1 [5]): 2.12
MFIR BIL03 AF647 (CD19 [6]): 16.3
MFI HisTag FITC (CD19 [7]): 2.35

B7: CD19 BRIDGE variant B31 (Fab)
heavy: B1 heavy
light: DFPGHNYTTRNILPGLNITSEPKSSDKTHTGGGGSDIVMTQSPATLSLSPGERATLSCRSSKSLQNVNGNTYLYWFQQKPGQSPQLLIYRMSNLNSGVPDRFSGSGSGTEFTLTISSLEPEDFAVYYCMQHLEYPITFGAGTKLEIKRTVAAPSVFIFPPSDEQLKSGTASVVCLLNNFYPREAKVQWKVDNALQSGNSQESVTEQDSKDSTYSLSSTLTLSKADYEKHKVYACEVTHQGLSSPVTKSFNRGEC
HisTag MFI Ratio (background 0.44) (nfP2X7 CAR 1 [1]): 6.1
MFIR HisTag FITC (CD19 [2]): 2.77
MFI Bil03 AF647 (CD19 [3]): 5.83
HisTag MFI Ratio of EGFR+/EGFR- (nfP2X7 CAR 1 [4]): 3.9
MFI HisTag FITC in EGFR+ Population (nfP2X7 CAR 1 [5]): 2.67
MFIR BIL03 AF647 (CD19 [6]): 12.7
MFI HisTag FITC (CD19 [7]): 2.13

B9: CD19 BRIDGE variant B29 (Fab)
heavy: B1 heavy
light: DFPGHNYTTRNILPGLNITSTFHKTSGSGKGSEPKSSDKTHTGSDIVMTQSPATLSLSPGERATLSCRSSKSLQNVNGNTYLYWFQQKPGQSPQLLIYRMSNLNSGVPDRFSGSGSGTEFTLTISSLEPEDFAVYYCMQHLEYPITFGAGTKLEIKRTVAAPSVFIFPPSDEQLKSGTASVVCLLNNFYPREAKVQWKVDNALQSGNSQESVTEQDSKDSTYSLSSTLTLSKADYEKHKVYACEVTHQGLSSPVTKSFNRGEC
HisTag MFI Ratio (background 0.44) (nfP2X7 CAR 1 [1]): 5.1
MFIR HisTag FITC (CD19 [2]): 3.03
MFI Bil03 AF647 (CD19 [3]): 7.44
HisTag MFI Ratio of EGFR+/EGFR- (nfP2X7 CAR 1 [4]): 4.2
MFI HisTag FITC in EGFR+ Population (nfP2X7 CAR 1 [5]): 2.25
MFIR BIL03 AF647 (CD19 [6]): 16.2
MFI HisTag FITC (CD19 [7]): 2.33

Further lines, results first:

HisTag MFI Ratio (background 0.44) (nfP2X7 CAR 1 [1]): 5.4
MFIR HisTag FITC (CD19 [2]): 2.92
MFI Bil03 AF647 (CD19 [3]): 7.12
HisTag MFI Ratio of EGFR+/EGFR- (nfP2X7 CAR 1 [4]): 3.9
MFI HisTag FITC in EGFR+ Population (nfP2X7 CAR 1 [5]): 2.39
MFIR BIL03 AF647 (CD19 [6]): 15.5
MFI HisTag FITC (CD19 [7]): 2.25
B2: CD19 BRIDGE variant B33 (Fab)
heavy: B1 heavy
light: DFPGHNYTTRNILPGLNITSGGGGSEPKSSDKTHTGGGGSDIVMTQSPATLSLSPGERATLSCRSSKSLQNVNGNTYLYWFQQKPGQSPQLLIYRMSNLNSGVPDRFSGSGSGTEFTLTISSLEPEDFAVYYCMQHLEYPITFGAGTKLEIKRTVAAPSVFIFPPSDEQLKSGTASVVCLLNNFYPREAKVQWKVDNALQSGNSQESVTEQDSKDSTYSLSSTLTLSKADYEKHKVYACEVTHQGLSSPVTKSFNRGEC

HisTag MFI Ratio (background 0.44) (nfP2X7 CAR 1 [1]): 5.5
MFIR HisTag FITC (CD19 [2]): 2.84
MFI Bil03 AF647 (CD19 [3]): 7.04
HisTag MFI Ratio of EGFR+/EGFR- (nfP2X7 CAR 1 [4]): 4.3
MFI HisTag FITC in EGFR+ Population (nfP2X7 CAR 1 [5]): 2.41
MFIR BIL03 AF647 (CD19 [6]): 15.3
MFI HisTag FITC (CD19 [7]): 2.19
B4: CD19 BRIDGE variant B34 (Fab)
heavy: B1 heavy
light: DFPGHNYTTRNILPGLNITSTFHKTSGSGKEPKSSDKTHTGGGGSDIVMTQSPATLSLSPGERATLSCRSSKSLQNVNGNTYLYWFQQKPGQSPQLLIYRMSNLNSGVPDRFSGSGSGTEFTLTISSLEPEDFAVYYCMQHLEYPITFGAGTKLEIKRTVAAPSVFIFPPSDEQLKSGTASVVCLLNNFYPREAKVQWKVDNALQSGNSQESVTEQDSKDSTYSLSSTLTLSKADYEKHKVYACEVTHQGLSSPVTKSFNRGEC

HisTag MFI Ratio (background 0.44) (nfP2X7 CAR 1 [1]): 5.7
MFIR HisTag FITC (CD19 [2]): 3
MFI Bil03 AF647 (CD19 [3]): 9.49
HisTag MFI Ratio of EGFR+/EGFR- (nfP2X7 CAR 1 [4]): 4.1
MFI HisTag FITC in EGFR+ Population (nfP2X7 CAR 1 [5]): 2.51
MFIR BIL03 AF647 (CD19 [6]): 20.6
MFI HisTag FITC (CD19 [7]): 2.31
B5: CD19 BRIDGE variant B35 (Fab)
heavy: B1 heavy
light: DFPGHNYTTRNILPGLNITSTFHKTSGSGKGSEPKSSDKTHTGGGGSDIVMTQSPATLSLSPGERATLSCRSSKSLQNVNGNTYLYWFQQKPGQSPQLLIYRMSNLNSGVPDRFSGSGSGTEFTLTISSLEPEDFAVYYCMQHLEYPITFGAGTKLEIKRTVAAPSVFIFPPSDEQLKSGTASVVCLLNNFYPREAKVQWKVDNALQSGNSQESVTEQDSKDSTYSLSSTLTLSKADYEKHKVYACEVTHQGLSSPVTKSFNRGEC

HisTag MFI Ratio (background 0.44) (nfP2X7 CAR 1 [1]): 5.9
MFIR HisTag FITC (CD19 [2]): 2.99
MFI Bil03 AF647 (CD19 [3]): 8.99
HisTag MFI Ratio of EGFR+/EGFR- (nfP2X7 CAR 1 [4]): 4
MFI HisTag FITC in EGFR+ Population (nfP2X7 CAR 1 [5]): 2.61
MFIR BIL03 AF647 (CD19 [6]): 19.5
MFI HisTag FITC (CD19 [7]): 2.3
B6: CD19 BRIDGE variant B32 (Fab)
heavy: B1 heavy
light: DFPGHNYTTRNILPGLNITSGSEPKSSDKTHTGGGGSDIVMTQSPATLSLSPGERATLSCRSSKSLQNVNGNTYLYWFQQKPGQSPQLLIYRMSNLNSGVPDRFSGSGSGTEFTLTISSLEPEDFAVYYCMQHLEYPITFGAGTKLEIKRTVAAPSVFIFPPSDEQLKSGTASVVCLLNNFYPREAKVQWKVDNALQSGNSQESVTEQDSKDSTYSLSSTLTLSKADYEKHKVYACEVTHQGLSSPVTKSFNRGEC

HisTag MFI Ratio (background 0.44) (nfP2X7 CAR 1 [1]): 5.5
MFIR HisTag FITC (CD19 [2]): 2.97
MFI Bil03 AF647 (CD19 [3]): 9.15
HisTag MFI Ratio of EGFR+/EGFR- (nfP2X7 CAR 1 [4]): 4.2
MFI HisTag FITC in EGFR+ Population (nfP2X7 CAR 1 [5]): 2.41
MFIR BIL03 AF647 (CD19 [6]): 19.9
MFI HisTag FITC (CD19 [7]): 2.29
B8: CD19 BRIDGE variant B36 (Fab)
heavy: B1 heavy
light: DFPGHNYTTRNILPGLNITSTFHKTSGSGKGGGGSEPKSSDKTHTGGGGSDIVMTQSPATLSLSPGERATLSCRSSKSLQNVNGNTYLYWFQQKPGQSPQLLIYRMSNLNSGVPDRFSGSGSGTEFTLTISSLEPEDFAVYYCMQHLEYPITFGAGTKLEIKRTVAAPSVFIFPPSDEQLKSGTASVVCLLNNFYPREAKVQWKVDNALQSGNSQESVTEQDSKDSTYSLSSTLTLSKADYEKHKVYACEVTHQGLSSPVTKSFNRGEC
